Data on 1 molecule can be found in patent US20060147914A1 (Johns Hopkins, published 2006).

For this test, the target named is T1, native mGluR5 in detergent extracts of rat hippocampus (rat, UniProt P31424 21-1203, limits assumed).
T1 construct: Native protein in tissue lysate
Briefly: in vitro binding assay with detergent extracts of hippocampus.

T1 sequence (P31424 21-1203 limits assumed): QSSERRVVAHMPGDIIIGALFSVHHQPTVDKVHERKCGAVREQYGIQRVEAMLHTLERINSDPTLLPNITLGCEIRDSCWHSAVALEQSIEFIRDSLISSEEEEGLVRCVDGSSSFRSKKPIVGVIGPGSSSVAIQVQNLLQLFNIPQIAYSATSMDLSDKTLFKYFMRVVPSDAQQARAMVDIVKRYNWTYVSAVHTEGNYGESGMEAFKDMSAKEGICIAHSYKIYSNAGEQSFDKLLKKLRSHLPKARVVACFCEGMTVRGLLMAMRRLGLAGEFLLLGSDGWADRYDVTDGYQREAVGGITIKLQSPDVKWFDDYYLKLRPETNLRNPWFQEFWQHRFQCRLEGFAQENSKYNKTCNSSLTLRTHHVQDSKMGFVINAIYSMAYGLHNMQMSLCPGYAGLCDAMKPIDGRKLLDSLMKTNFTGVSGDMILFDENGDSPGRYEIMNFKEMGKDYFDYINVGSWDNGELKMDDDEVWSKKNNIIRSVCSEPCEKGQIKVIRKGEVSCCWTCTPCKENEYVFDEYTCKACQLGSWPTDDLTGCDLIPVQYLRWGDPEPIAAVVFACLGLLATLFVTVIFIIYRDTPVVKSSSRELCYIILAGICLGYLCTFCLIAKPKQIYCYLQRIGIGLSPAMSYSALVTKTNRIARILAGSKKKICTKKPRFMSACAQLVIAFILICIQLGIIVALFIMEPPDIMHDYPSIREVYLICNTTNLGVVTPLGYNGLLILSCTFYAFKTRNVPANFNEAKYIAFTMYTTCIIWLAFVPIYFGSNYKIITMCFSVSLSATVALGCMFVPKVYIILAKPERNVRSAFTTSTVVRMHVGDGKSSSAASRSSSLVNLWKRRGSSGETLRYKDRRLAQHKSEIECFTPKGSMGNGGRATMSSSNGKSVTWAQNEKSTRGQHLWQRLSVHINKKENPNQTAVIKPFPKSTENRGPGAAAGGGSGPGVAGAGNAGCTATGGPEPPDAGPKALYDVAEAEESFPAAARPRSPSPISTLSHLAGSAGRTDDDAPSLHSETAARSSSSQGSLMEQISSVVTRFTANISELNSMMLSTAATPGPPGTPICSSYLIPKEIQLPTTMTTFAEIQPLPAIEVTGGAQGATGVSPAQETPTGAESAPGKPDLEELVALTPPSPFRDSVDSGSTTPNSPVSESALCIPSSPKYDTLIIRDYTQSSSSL
Protocol: 40 ml of beads were then incubated with lysate from one hippocampus for one hour at 4° C., washed three times with PBS, and bound mGluR5 was eluted by boiling in 3× loading buffer.

B1: GST-Homer fusion protein (rat Homer) used with hippocampal extracts (other)
chain: GEQPIFSTRAHVFQIDPNTKKNWVPTSKHAVTVSYFYDSTRNVYRIISLDGSKAIINSTITPNMTFTKTSQKFGQWADSRANTVYGLGFSSEHHLSKFAEKFQEFKEAARLAKEKSQEKMELTSTPSQESAGGDLQSPLTPESINGTDDERTPDVTQNSEPRAEPAQNALPFSHRYTFNSAIMIK
notes: also called Homer GST fusion protein; Homer GST-fusion protein; not shown: glutathione S-transferase (GST) fusion partner, bacterially expressed
For B1, the binding result is on record as “binds”.
